From PMC4945142 (Molecular Biology of the Cell, 2016) come the findings set out here.

Data set [1] has as its target E. coli-expressed GST-Spc110p^1-220 (budding yeast) (UniProt P32380). The experiment in a line: SEC-MALS. In general terms: Size exclusion chromatography separates by hydrodynamic size, large species first.
Data set [2] has as its target γ-tubulin small complex (γTuSC) with γ-tubulin^S48C/S153C, Spc97-YFP and Spc98-CFP (budding yeast) (UniProt P53378). The experiment in a line: FRET or BRET. Background: Bioluminescence resonance energy transfer reports proximity on the nanometre scale.
The data set “SEC-MALS” deals with the molecule itself. The data set can be described thus: SEC-MALS.

Values joined by “and” are separate entries in the source; they are usually repeats but may differ in a detail not shown here. Identical values can stand only once.

For “E. coli-expressed GST-Spc110p^1-220 (from UniProt P32380 1-220) (domain or fragment)”, the stoichiometry N – broadly, a count of units in the complex or per binding partner – in data set [1] is 2 and 4.

Take “Spc110p^1-220 tetramer (Spc110p^1-220 fused with the tetramer-forming mutant coiled-coil domain of GCN4, GCN4-LI) (from UniProt P32380 1-220)”: in data set [2], the Kd (usually a measure of binding affinity in units of concentration) turned out to be 4 nM; the Kd2 (Spc110p tetramer with a single γTuSC) worked out at 43 nM; the Kd3 (a second γTuSC binding to the complex of Spc110p tetramer and one γTuSC) was determined as 3 nM.

B1: Untagged Spc110p^1-220 (domain or fragment, budding yeast, UniProt P32380 1-220, looked up)
chain: MDEASHLPNGSLKNMEFTPVGFIKSKRNTTQTQVVSPTKVPNANNGDENEGPVKKRQRRSIDDTIDSTRLFSEASQFDDSFPEIKANIPPSPRSGNVDKSRKRNLIDDLKKDVPMSQPLKEQEVREHQMKKERFDRALESKLLGKRHITYANSDISNKELYINEIKSLKHEIKELRKEKNDTLNNYDTLEEETDDLKNRLQALEKELDAKNKIVNSRKVD
As to B1, the “stoichiometry N” value in the data set “SEC-MALS” was 2.
